{"source": "patent US8758746B2", "about": "“Fertilization modulation compounds and process for implementing them” (Universite Joseph Fourier, priority 2009, dated 2014)", "molecules": {"B1": {"name": "mGIIA: Recombinant mouse group IIA secreted phospholipase A2 (protein, UniProt P31482 22-146, looked up)", "Phospholipase A2, membrane …": "NIAQFGEMIRLKTGKRAELSYAFYGCHCGLGGKGSPKDATDRCCVTHDCCYKSLEKSGCGTKLLKYKYSHQGGQITCSANQNSCQKRLCQCDKAAAECFARNKKTYSLKYQFYPNMFCKGKKPKC"}, "B2": {"name": "pro-mGX: the inactive pro-enzyme (precursor molecule) of mGX (protein, UniProt Q9QXX3 18-151, looked up)", "pro-form": "EATRRSHVYKRGLLELAGTLDCVGPRSPMAYMNYGCYCGLGGHGEPRDAIDWCCYHHDCCYSRAQDAGCSPKLDRYPWKCMDHHILCGPAENKCQELLCRCDEELAYCLAGTEYHLKYLFFPSILCEKDSPKCN", "modifications": "pro-form"}, "B3": {"name": "mGX: Recombinant mouse group X secreted phospholipase A2 (protein, UniProt Q9QXX3 29-151, looked up)", "Group 10 secretory …": "GLLELAGTLDCVGPRSPMAYMNYGCYCGLGGHGEPRDAIDWCCYHHDCCYSRAQDAGCSPKLDRYPWKCMDHHILCGPAENKCQELLCRCDEELAYCLAGTEYHLKYLFFPSILCEKDSPKCN"}, "B4": {"name": "mGV: Recombinant mouse group V secreted phospholipase A2 (protein, UniProt P97391 21-137, looked up)", "Phospholipase A2 group V": "GLLELKSMIEKVTGKNAFKNYGFYGCYCGWGGRGTPKDGTDWCCQMHDRCYGQLEEKDCAIRTQSYDYRYTNGLVICEHDSFCPMRLCACDRKLVYCLRRNLWTYNPLYQYYPNFLC"}}, "key": {"spermatozoa": {"system": "spermatozoa", "settings": "inhibitors of PLA2; Roldan and Fragio 1993; Llanos et al 1993; cited from earlier work"}, "sperm and oocytes [1]": {"system": "sperm and oocytes", "test": "In vitro fertilization (IVF), two-cell embryos scored at 24 h", "assay_type": "cell-based, mouse", "settings": "for comparison with mGX sPLA2 effect (FIG. 7): around 10 μM, 45 min during capacitation or 4 h after gamete mixing"}, "[2]": {"system": "Sperm cells from caudae epididymes", "test": "Acrosome reaction assay (coomassie blue staining)", "assay_type": "cell-based, mouse", "settings": "for AR induced above basal spontaneous level of AR / ability to trigger acrosome reaction (AR): uncapacitated sperm; for ability to trigger acrosome reaction (AR): incubated 10 min with sPLA2 (200 nM in FIG. 2A; pro-mGX at 200 nM)", "protocol": "Sperm cells from caudae epididymes were allowed to swim in M2 medium for 10 min. Then, sperms were incubated, if necessary, with different sPLA2 in M16 medium at 37° C. for 10 min. Cells were transferred in PBS solution and then fixed with 4% PFA solution for 2 min. Sperm was washed with 100 mM ammonium acetate for 2 min and wet-mounted on slides and allowed to air dry. Slides were then rinsed with water and stained with coomassie blue (0.22%) for 2 min and finally rinsed with water. Slides were counted immediately and 150 sperm cells were scored at least.\nThe rate of AR increase from 20%, corresponding to spontaneous acrosome-reacted sperm, to 60% in the presence of 200 nM active sPLA2. In order to better characterize the potency of such compounds to trigger AR, dose-response curves for mGX and mGIIA were realized (FIG. 2B).\nSperm were capacitated with 2% BSA in M16 medium, in a 5% CO2 incubator at 37° C. At 45 and 80 min, 200 nM of mGX was introduced in the capacitation medium and sperm were fixed 10 min later. The rates of acrosome-reacted sperm observed in the presence of sPLA2 were compared with control sperm capacitated during 55 or 90 min in the capacitation medium (FIG. 2C). […] Moreover, the difference between spontaneous AR and total rate, corresponding to the sPLA2-induced fraction, was around stable throughout the capacitation progress: ≈39%, ≈36% and ≈35% at 10, 55 and 90 min respectively. It is important to notice that a small fraction of sperm of around 20% was reluctant to spontaneous AR or sPLA2-induced AR even in the presence of a high level of spontaneous AR."}, "sperm and oocytes [3]": {"system": "sperm and oocytes", "test": "In vitro fertilization (IVF), two-cell embryos scored at 24 h", "assay_type": "cell-based, mouse", "settings": "for rate of IVF (effect in words): OF1 sperm treated 10 min with 20 or 200 nM mGX", "protocol": "Sperm cells, obtained by manual trituration of caudae epididymes from OF1 male mice, were allowed to swim in M2 medium for 10 min. Then, the sperm cells were transferred in M16 medium containing 2% BSA (Bovine Serum Albumen) and incubated 35 min for capacitation. After centrifugation, cells were then transferred in M16 medium and if necessary, incubated with 20 or 200 nM of mGX sPLA2 for 10 min. Sperm cells were centrifugated (1200 rpm, 5 min) and re-suspended in M16 medium to remove […] sPLA2 before to be used for in vitro fertilization experiment. All experiments were carried out at 37° C. Eggs were collected from mature OF1 females (6-weeks old) synchronized with 7.5 units of PMSG (pregnant mare serum gonadotrophin) and 7.5 units of hCG (human chorionic gonadotrophin) before collection.\nIVF using standard protocols were carried out. Eggs were incubated with approximately 10^4 sperm cells, and unbound sperms were washed away after 4 hours of incubation. Twenty four hours after fertilization, the two-cell embryos stages (FIG. 4) were scored as an indication of successful fertilization (FIGS. 5 and 6).\nIn vitro fertilizations (IVF) were realized with sperm capacitated 35 min in 2% BSA and then treated 10 min with 20 or 200 nM mGX. Before treated sperm were introduced within oocytes, sperm were washed and centrifuged to remove sPLA2 in order to avoid artefact effects of sPLA2 on sperm-oocyte fusion (Riffo and Parraga, 1997). sPLA2 contaminant in the IVF medium was below 1 nM for sperm treated at 200 nM."}, "Sperm cells": {"system": "Sperm cells", "test": "Electron microscopy of sPLA2-induced acrosome reaction", "assay_type": "cell-based, mouse", "settings": "uncapacitated sperm", "protocol": "Sperm cells were fixed with 2.5% glutaraldehyde in 0.1 M cacodylate buffer pH 7.4 during 2 hours at room temperature. Cells were then washed with buffer and post fixed with 1% Osmium tetroxyde in the same buffer during 1 hour at 4° C. After extensive washing with water cells were then stained with 0.5% uranile acetate pH 4 overnight at 4° C. Cells were then dehydrated through graded alcohol (30%-60%-90%-100%-100%-100%) and infiltrate with a mix of 1/1 epon/alcohol 100% during 1 hour before several bath of fresh epon (Flukka) during 3 hours. Finally, cells were centrifugated and immersed in fresh Epon and polymerised during 3 days at 60° C. Ultrathin sections of the cell pellet were cut with an ultramicrotome (Leica). Sections were post-stained with 4% uranile acetate and 1% lead citrate before being observed in an electron microscope at 80 kV (JEOL 1200EX).\nIt was important to check with electron microscopy (EM) that sPLA2 induced a morphologically normal acrosome reaction. The morphological criteria by which an acrosome reaction is evaluated to be normal are relatively limited: first, the outer acrosomal membrane should present vesiculation, second, the plasma membrane should fuse with the outer acrosomal membrane and present a characteristic double hair pin shape at the base of the acrosome (Green, D. P. (1978) The induction of the acrosome reaction in guinea-pig sperm by the divalent metal cation ionophore A23187. J. Cell Sci., 32:137-51.:137-151.)\nFor these experiments, uncapacitated sperm was used in order to reduce the contribution of spontaneous AR and 200 nM sPLA2 to get maximum sPLA2-induced AR. Sperm were incubated 10 min with mGX sPLA2 or the calcium ionophore A23187 and then fixed. In the presence of A23187, all acrosome-reacted sperm presented complete AR, with the 3 morphological criteria, as described above."}}, "note": "Several values for one entry are separate records, joined by “and”; a condition that tells them apart may be missing. Equal entries are not always repeated. Entries after “also recorded” stand apart in the source; their conditions may differ."}
{"molecule": "O=C(CBr)c1ccc(Br)cc1", "note": "[4-bromophenacyl bromide]", "values": [{"measurement": "effect on calcium-ionophore induced acrosome reaction", "setting": "spermatozoa", "value": "block"}]}
{"molecule": "CCCCC/C=C\\C/C=C\\C/C=C\\C/C=C\\CCCC(=O)O", "note": "[arachidonic acid]", "values": [{"measurement": "comparison with mGX sPLA2 effect (FIG. 7)", "setting": "sperm and oocytes [1]", "value": "mimic mGX sPLA2"}]}
{"molecule": "CCN(CC)CCCC(C)Nc1c2ccc(Cl)cc2nc2ccc(OC)cc12", "note": "(centres unmarked) [mepacrine]", "values": [{"measurement": "effect on calcium-ionophore induced acrosome reaction", "setting": "spermatozoa", "value": "block"}]}
{"molecule": "Lysophosphocholine [LPC]", "values": [{"measurement": "rescue of fertilization decreased by LY329722", "setting": "sperm and oocytes [1]; LPC 1 μM during capacitation with LY329722 2 μM (FIG. 8)", "value": "rescued"}, {"measurement": "comparison with mGX sPLA2 effect (FIG. 7)", "setting": "sperm and oocytes [1]", "value": "mimic mGX sPLA2"}]}
{"molecule": "B1", "values": [{"measurement": "AR induced above basal spontaneous level of AR", "setting": "[2]; 2 nM sPLA2", "value": "around 20%"}, {"measurement": "ability to trigger acrosome reaction (AR)", "setting": "[2]", "value": "trigger acrosome reaction; also recorded: able to trigger AR"}]}
{"molecule": "B2", "values": [{"measurement": "ability to trigger acrosome reaction (AR)", "setting": "[2]", "value": "unable to trigger AR"}, {"measurement": "ability to trigger acrosome reaction (AR)", "setting": "[2]; listed as Pro-mGX", "value": "unable to trigger sperm acrosome reaction"}]}
{"molecule": "B3", "values": [{"measurement": "rate of IVF (effect in words)", "setting": "sperm and oocytes [3]", "value": "promotes fertilization"}, {"measurement": "rate of IVF (effect in words)", "setting": "sperm and oocytes [3]; listed as mGX sPLA2", "value": "increased"}, {"measurement": "fertilization outcome (2 cell embryo at 24 h post fertilization)", "setting": "sperm and oocytes [3]; sPLA2 at 200 nM (FIG. 7)", "value": "improve fertilization outcome"}, {"measurement": "rate of two cells embryos stage at 24 hours (IVF rate)", "setting": "sperm and oocytes [3]; sperm from OF1 males treated 10 min with 200 nM mGX, control 45% (44.0±8.9%)", "value": "65% and 65.4 ± 5.6%"}, {"measurement": "kinetic of induced AR compared with A23187", "setting": "Sperm cells; 200 nM, 10 min", "value": "slower"}, {"measurement": "morphology of induced acrosome reaction (electron microscopy)", "setting": "Sperm cells; incubated 10 min (200 nM sPLA2)", "value": "normal morphological feature"}, {"measurement": "ability of mGX to trigger AR with 2 mM Ni2+", "setting": "[2]; 200 nM mGX, 2 mM Ni2+ in the bath, n=3", "value": "block"}, {"measurement": "sPLA2-induced fraction (difference between total rate and spontaneous AR)", "setting": "[2]; 200 nM mGX, 10 min (non-capacitated sperm)", "value": "≈ 39%"}, {"measurement": "ability of mGX to trigger AR without external calcium", "setting": "[2]; 200 nM mGX, 10 min, external calcium removed, n=3", "value": "block"}, {"measurement": "sPLA2-induced fraction (difference between total rate and spontaneous AR)", "setting": "[2]; 200 nM mGX, 55 min of capacitation in 2% BSA", "value": "≈ 36%"}, {"measurement": "sPLA2-induced fraction (difference between total rate and spontaneous AR)", "setting": "[2]; 200 nM mGX, 90 min of capacitation in 2% BSA", "value": "≈ 35%"}, {"measurement": "very low dose from which AR is triggered", "setting": "[2]; capacitated and uncapacitated sperm, in the absence of oocytes", "value": 0.2, "unit": "nM"}, {"measurement": "total rate of acrosome-reacted sperm versus control", "setting": "[2]; capacitated sperm (2% BSA, 55 or 90 min), 200 nM mGX for the last 10 min", "value": "able to trigger acrosome reaction; also recorded: increased at all capacitation durations"}, {"measurement": "AR induced above basal spontaneous level of AR", "setting": "[2]; 0.2 nM sPLA2", "value": 15, "unit": "%"}, {"measurement": "AR induced above basal spontaneous level of AR", "setting": "[2]; 0.2 nM sPLA2, listed as mGX sPLA2", "value": "around 20%"}, {"measurement": "ability to trigger acrosome reaction (AR)", "setting": "[2]", "value": "trigger acrosome reaction; also recorded: able to trigger AR"}, {"measurement": "increase of fertilization rate versus non-treated sperm", "setting": "sperm and oocytes [1]; C57Bl/6 strain, mGX treated sperm (200 nM)", "value": 142, "unit": "%"}, {"measurement": "control IVF with sPLA2 present during sperm-oocyte incubation", "setting": "sperm and oocytes [1]; sperm and oocytes incubated with 1 nM mGX", "value": "no difference was noticed"}, {"measurement": "rate of two-cells embryos stage at 24 hours", "setting": "sperm and oocytes [1]; sperm from C57Bl/6 males treated with 200 nM mGX, control 8.2%", "value": 19.9, "unit": "%"}]}
{"molecule": "B4", "values": [{"measurement": "ability to trigger acrosome reaction (AR)", "setting": "[2]", "value": "trigger acrosome reaction"}]}
